The source of these data is patent JP2020103280A.

For assay [1], the target named is ヒトFcγRIIIaを固定化した担体(分離剤)を詰めたカラム(FcR9_Fカラム、WO2018/150973号の実施例5に記載) (human). Put plainly: FcγRIIIa affinity chromatography (FcR9_F column), area share of the strongly binding peak 3; antibody from bioreactor batch culture in EX-CELL Advanced CHO Fed-batch Medium with 5 µM Mn, day 10.
For assay [2] the target is unchanged. The assay is described as follows: FcγRIIIa affinity chromatography (FcR9_F column), area share of the strongly binding peak 3; antibody from bioreactor batch culture in EX-CELL Advanced CHO Fed-batch Medium with 10 µM Mn, day 10.
The target is the same in assay [3]. The assay is described as follows: FcγRIIIa affinity chromatography (FcR9_F column), area share of the strongly binding peak 3; antibody from bioreactor batch culture in BalanCD CHO Growth A without Mn, day 9.
The target is the same in assay [4]. The assay is described as follows: FcγRIIIa affinity chromatography (FcR9_F column), area share of the strongly binding peak 3; antibody from bioreactor batch culture in EX-CELL Advanced CHO Fed-batch Medium without Mn, day 10.
Assay [5] has the same target. The assay is described as follows: FcγRIIIa affinity chromatography (FcR9_F column), area share of the strongly binding peak 3; antibody from bioreactor batch culture in BalanCD CHO Growth A with 5 µM Mn, day 10.
The target is the same in assay [6]. Put plainly: FcγRIIIa affinity chromatography (FcR9_F column), area share of the strongly binding peak 3; antibody from bioreactor batch culture in EX-CELL Advanced CHO Fed-batch Medium with 1 µM Mn, day 10.

B1: 抗インターロイキン6レセプター(IL−6R)抗体 (antibody, V domains shown)
VH: QVQLQESGPGLVRPSQTLSLTCTVSGYSITSDHAWSWVRQPPGRGLEWIGYISYSGITTYNPSLKSRVTMLRDTSKNQFSLRLSSVTAADTAVYYCARSLARTTAMDYWGQGSLVTVSS
VL: DIQMTQSPSSLSASVGDRVTITCRASQDISSYLNWYQQKPGKAPKLLIYYTSRLHSGVPSRFSGSGSGTDFTFTISSLQPEDIATYYCQQGNTLPYTFGQGTKVEIK
Turning to B1, the FcR9_Fカラムとの結合力が強いピーク(ピーク3)の割合 in assay [1] was determined as 38.4%; in assay [2], 41%; in assay [3], 27.9%; in assay [4], 35.9%; in assay [5] it was 34.7%; in assay [6], 36.5%.
